B1: FLAG-, HA-tagged wild-type Bag-1L [human] / androgen receptor, endogenous in LNCaP cells [human (endogenous in LNCaP)] (parent complex)
chain 1: MAQRGGARRPRGDRERLGSRLRALRPGREPRQSEPPAQRGPPPSGRPPARSTASGHDRPTRGAAAGARRPRMKKKTRRRSTRSEELTRSEELTLSEEATWSEEATQSEEATQGEEMNRSQEVTRDEESTRSEEVTREEMAAAGLTVTVTHSNEKHDLHVTSQQGSSEPVVQDLAQVVEEVIGVPQSFQKLIFKGKSLKEMETPLSALGIQDGCRVMLIGKKNSPQEEVELKKLKHLEKSVEKIADQLEELNKELTGIQQGFLPKDLQAEALCKLDRRVKATIEQFMKILEEIDTLILPENFKDSRLKRKGLVKKVQAFLAECDTVEQNICQETERLQSTNFALAE
chain 2: MEVQLGLGRVYPRPPSKTYRGAFQNLFQSVREVIQNPGPRHPEAASAAPPGASLLLLQQQQQQQQQQQQQQQQQQQQQQQETSPRQQQQQQGEDGSPQAHRRGPTGYLVLDEEQQPSQPQSALECHPERGCVPEPGAAVAASKGLPQQLPAPPDEDDSAAPSTLSLLGPTFPGLSSCSADLKDILSEASTMQLLQQQQQEAVSEGSSSGRAREASGAPTSSKDNYLGGTSTISDNAKELCKAVSVSMGLGVEALEHLSPGEQLRGDCMYAPLLGVPPAVRPTPCAPLAECKGSLLDDSAGKSTEDTAEYSPFKGGYTKGLEGESLGCSGSAAAGSSGTLELPSTLSLYKSGALDEAAAYQSRDYYNFPLALAGPPPPPPPPHPHARIKLENPLDYGSAWAAAAAQCRYGDLASLHGAGAAGPGSGSPSAAASSSWHTLFTAEEGQLYGPCGGGGGGGGGGGGGGGGGGGGGGGEAGAVAPYGYTRPPQGLAGQESDFTAPDVWYPGGMVSRVPYPSPTCVKSEMGPWMDSYSGPYGDMRLETARDHVLPIDYYFPPQKTCLICGDEASGCHYGALTCGSCKVFFKRAAEGKQKYLCASRNDCTIDKFRRKNCPSCRLRKCYEAGMTLGARKLKKLGNLKLQEEGEASSTTSPTEETTQKLTVSHIEGYECQPIFLNVLEAIEPGVVCAGHDNNQPDSFAALLSSLNELGERQLVHVVKWAKALPGFRNLHVDDQMAVIQYSWMGLMVFAMGWRSFTNVNSRMLYFAPDLVFNEYRMHKSRMYSQCVRMRHLSQEFGWLQITPQEFLCMKALLLFSIIPVDGLKNQKFFDELRMNYIKELDRIIACKRKNPTSCSRRFYQLTKLLDSVQPIARELHQFTFDLLIKSHMVSVDFPEMMAEIISVQVPKILSGKVKPIYFHTQ

In the test the parent is B1. The experiment in a line: SILAC RIME; LNCaP cells stably expressing FLAG-HA-tagged wild-type or CMut Bag-1L; parent: 21; read off a plot.
chain 1 MAQRGGARRPRGDRERLGSRLRALRPGREPRQSEPPAQRGPPPSGRPPARSTASGHDRPTRGAAAGARRPRMKKKTRRRSTRSEELTRSEELTLSEEATWSEEATQSEEATQGEEMNRSQEVTRDEESTRSEEVTREEMAAAGLTVTVTHSNEKHDLHVTSQQGSSEPVVQDLAQVVEEVIGVPQSFQKLIFKGKSLKEMETPLSALGIQDGCRVMLIGKKNSPQEEVELAALKHLEKSVEKIADQLEELNKELTGIQQGFLPKDLQAEALCKLDRRVAATIEQFMKILEEIDTLILPENFKDSRLKRKGLVKKVQAFLAECDTVEQNICQETERLQSTNFALAE [chain 1 K231A, chain 1 K232A, chain 1 K279A]: the response is about 19 log2 intensity.
